From patent US20230138930A1 (FUDAN UNIVERSITY, published 2023)
Numbering of substitutions follows the chain as printed.

B1: TF-mAb-Ch (antibody, V domains shown)
VH: QVQLQQPGAELVRPGASVKLSCKASGYSFISYWMNWVKQRPGQGLEWIGMIYPADSETRLNQKFKDKATLTVDKSSSTAYMQLSSPTSEDSAVYYCAREDYGSSDYWGQGTTLTVSS
VL: EILLTQSPAIIAASPGEKVTITCSASSSVSYMNWYLQKPGSSPKIWIYGISNLASGVPARFSGSGSGTSFSFTINSMETEDVATYYCQQKSSFPWTFGGGTKLEIK
notes: Variable regions of TF-mAb-SC1 cloned onto human IgG1 heavy chain constant region and human kappa constant region; also called human-mouse chimeric antibody
B2: TF-mAb-H30 (antibody, V domains shown)
VH: EVQLVQSGAEVKKPGESLKISCKGSGYSFTSYWMNWVRQMPGKGLEWMGMIYPADSETRLNQKFKDKATLSVDKSISTAYLQWSSLKASDTAMYYCAREDYGSSDYWGQGTTVTVSS
VL: EIVLTQSPATLSLSPGERATLSCSASSSVSYMNWYQQKPGQAPRIWIYGISNLASGIPARFSGSGSGTDFTLTISSLEPEDFAVYYCQQKSSFPWTFGGGTKVEIK
B3: TF-mAb-H29 (antibody, V domains shown)
VH: B2 VH with K67Q
VL: B2 VL
B4: TF-mAb-H31 (antibody, V domains shown)
VH: B2 VH with R38K
VL: B2 VL
B5: TF-mAb-H34 (antibody, V domains shown)
VH: B2 VH with K67Q
VL: B2 VL with A42S, I57V
B6: TF-mAb-H35 (antibody, V domains shown)
VH: B2 VH
VL: B2 VL with A42S, I57V
B7: TF-mAb-H36 (antibody, V domains shown)
VH: B2 VH with R38K
VL: B2 VL with A42S, I57V
B8: TF-mAb-H32 (antibody, V domains shown)
VH: QVQLVQSGAEVKKPGASVKVSCKASGYSFISYWMNWVRQAPGQGLEWIGMIYPADSETRLNQKFKDRATLTVDKSTSTAYMELSSLRSEDTAVYYCAREDYGSSDYWGQGTTVTVSS
VL: B2 VL
B9: TF-mAb-H33 (antibody, V domains shown)
VH: QVQLVQSGSELKKPGASVKVSCKASGYSFISYWMNWVRQAPGQGLEWIGMIYPADSETRLNQKFKDRAVLSVDKSVSTAYLQICSLKAEDTAVYYCAREDYGSSDYWGQGTTVTVSS
VL: B2 VL
B10: TF-mAb-H37 (antibody, V domains shown)
VH: B8 VH
VL: B2 VL with A42S, I57V
B11: TF-mAb-H38 (antibody, V domains shown)
VH: B9 VH
VL: B2 VL with A42S, I57V
B12: TF-mAb-H40 (antibody, V domains shown)
VH: B2 VH
VL: DIQLTQSPSSLSASVGDRVTITCSASSSVSYMNWYQQKPGKSPKIWIYGISNLASGVPSRFSGSGSGTDFTLTISSLQPEDFATYYCQQKSSFPWTFGGGTKVEIK
B13: TF-mAb-H39 (antibody, V domains shown)
VH: B2 VH with K67Q
VL: B12 VL
B14: TF-mAb-H41 (antibody, V domains shown)
VH: B2 VH with R38K
VL: B12 VL
B15: TF-mAb-H42 (antibody, V domains shown)
VH: B8 VH
VL: B12 VL
B16: TF-mAb-H43 (antibody, V domains shown)
VH: B9 VH
VL: B12 VL
B17: TF-mAb-H45 (antibody, V domains shown)
VH: B2 VH
VL: EIVLTQSPDFQSVTPKEKVTITCSASSSVSYMNWYQQKPDQSPKIWIYGISNLASGVPSRFSGSGSGTDFTLTINSLEAEDAATYYCQQKSSFPWTFGGGTKVEIK
B18: TF-mAb-H44 (antibody, V domains shown)
VH: B2 VH with K67Q
VL: B17 VL
B19: TF-mAb-H46 (antibody, V domains shown)
VH: B2 VH with R38K
VL: B17 VL
B20: TF-mAb-H47 (antibody, V domains shown)
VH: B8 VH
VL: B17 VL
B21: TF-mAb-H48 (antibody, V domains shown)
VH: B9 VH
VL: B17 VL

What was measured:
[1] = biological target: T1, human TF on cells (MDA-MB-231, BxPC-3 and other tumor cells with high TF expression) (human, UniProt P13726 33-295); experiment: flow cytometry on MDA-MB-231 cells, antibody at 10 µg/mL
T1 construct: whole, on cells; Endogenous expression on tumor cell lines; also called cell surface TF

[2] = biological target: T1, human TF on cells (MDA-MB-231, BxPC-3 …); experiment: flow cytometry on MDA-MB-231 cells, antibody at 1 µg/mL

Binder | MFI [1] [MFI] | MFI [2] [MFI]
B1 | 3540 | 3370
B2 | 3240 | 2930
B3 | 3580 | 2960
B4 | 3470 | 3080
B5 | 3270 | 2460
B6 | 3020 | 2930
B7 | 3090 | 3040
B8 | 3010 | 2400
B9 | 2840 | 2420
B10 | 2990 | 2460
B11 | 3150 | 2870
B12 | 3310 | 3180
B13 | 3380 | 3180
B14 | 3610 | 3000
B15 | 3350 | 2970
B16 | 3300 | 2820
B17 | 3480 | 3100
B18 | 3430 | 3200
B19 | 3410 | 3120
B20 | 3150 | 3000
B21 | 2900 | 2610
